According to the supplement of paper PMC5998384:

Legend:
HeLa Kyoto [1] = assay: solubility in G1/S (NP-40 vs SDS abundance) (log2 ratio); higher = more soluble; details: cell cycle stage: G1/S
HeLa Kyoto [2] = assay: melting temperature (median over replicates), in situ; higher = more thermally stable
HeLa Kyoto [3] = assay: solubility change mitosis vs G1/S (difference of NP-40 vs SDS log2 ratios) (log2 ratio difference); higher = more soluble in mitosis
HeLa Kyoto [4] = assay: thermal stability score vs G1/S (z-score of summed log2 fold changes over temperatures); higher = more thermally stable than in G1/S
[5] = cell cycle stage: early G1 (4.5 h after nocodazole release)
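For melting temperature (median over replicates), in situ in this document: HeLa Kyoto cells synchronized by double thymidine or nocodazole block, proteins quantified by TMT10plex mass spectrometry, three independent biological replicates.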
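For solubility change mitosis vs G1/S (difference of NP-40 vs SDS log2 ratios) in this document: synchronized HeLa Kyoto cells (double thymidine block for G1/S, nocodazole release for mitosis), protein amounts in NP-40 versus SDS lysates quantified by mass spectrometry, three biological replicates.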
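For solubility in G1/S (NP-40 vs SDS abundance) in this document: HeLa Kyoto cells arrested at G1/S by double thymidine block, proteins quantified by TMT10plex mass spectrometry in mild NP-40 versus SDS extracts, three biological replicates.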
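For thermal stability score vs G1/S (z-score of summed log2 fold changes over temperatures) in this document: synchronized HeLa Kyoto cells, proteins quantified by TMT10plex mass spectrometry, three biological replicates, mitosis taken 0.5 h after nocodazole release, G1/S directly after double thymidine block.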

| Sequence | solubility in G1/S (log2) (HeLa Kyoto [1]) | melting temperature (HeLa Kyoto [2]; cell cycle stage: G1/S) | melting temperature (HeLa Kyoto [2]; cell cycle stage: mitosis) | solubility change mitosis (log2) (HeLa Kyoto [3]) | thermal stability score (HeLa Kyoto [4]; [5]) | thermal stability score (HeLa Kyoto [4]; cell cycle stage: mitosis) |
| --- | --- | --- | --- | --- | --- | --- |
| MDTPENVLQMLEAHMQSYKGNDPLGEWERYIQWVEENFPENKEYLITLLEHLMKEFLDKKKYHNDPRFISYCLKFAEYNSDLHQFFEFLYNHGIGTLSSPLYIAWAGHLEAQGELQHASAVLQRGIQNQAEPREFLQQQYRLFQTRLTETHLPAQARTSEPLHNVQVLNQMITSKSNPGNNMACISKNQGSELSGVISSACDKESNMERRVITISKSEYSVHSSLASKVDVEQVVMYCKEKLIRGESEFSFEELRAQKYNQRRKHEQWVNEDRHYMKRKEANAFEEQLLKQKMDELHKKLHQVVETSHEDLPASQERSEVNPARMGPSVGSQQELRAPCLPVTYQQTPVNMEKNPREAPPVVPPLANAISAALVSPATSQSIAPPVPLKAQTVTDSMFAVASKDAGCVNKSTHEFKPQSGAEIKEGCETHKVANTSSFHTTPNTSLGMVQATPSKVQPSPTVHTKEALGFIMNMFQAPTLPDISDDKDEWQSLDQNEDAFEAQFQKNVRSSGAWGVNKIISSLSSAFHVFEDGNKENYGLPQPKNKPTGARTFGERSVSRLPSKPKEEVPHAEEFLDDSTVWGIRCNKTLAPSPKSPGDFTSAAQLASTPFHKLPVESVHILEDKENVVAKQCTQATLDSCEENMVVPSRDGKFSPIQEKSPKQALSSHMYSASLLRLSQPAAGGVLTCEAELGVEACRLTDTDAAIAEDPPDAIAGLQAEWMQMSSLGTVDAPNFIVGNPWDDKLIFKLLSGLSKPVSSYPNTFEWQCKLPAIKPKTEFQLGSKLVYVHHLLGEGAFAQVYEATQGDLNDAKNKQKFVLKVQKPANPWEFYIGTQLMERLKPSMQHMFMKFYSAHLFQNGSVLVGELYSYGTLLNAINLYKNTPEKVMPQGLVISFAMRMLYMIEQVHDCEIIHGDIKPDNFILGNGFLEQDDEDDLSAGLALIDLGQSIDMKLFPKGTIFTAKCETSGFQCVEMLSNKPWNYQIDYFGVAATVYCMLFGTYMKVKNEGGECKPEGLFRRLPHLDMWNEFFHVMLNIPDCHHLPSLDLLRQKLKKVFQQHYTNKIRALRNRLIVLLLECKRSRK [BUB1] | -0.019 | 48.8 °C | 49.9 °C | -0.112 | 0.554 | 1.15 |
| MDVLAEEFGNLTPEQLAAPIPTVEEKWRLLPAFLKVKGLVKQHIDSFNYFINVEIKKIMKANEKVTSDADPMWYLKYLNIYVGLPDVEESFNVTRPVSPHECRLRDMTYSAPITVDIEYTRGSQRIIRNALPIGRMPIMLRSSNCVLTGKTPAEFAKLNECPLDPGGYFIVKGVEKVILIQEQLSKNRIIVEADRKGAVGASVTSSTHEKKSRTNMAVKQGRFYLRHNTLSEDIPIVIIFKAMGVESDQEIVQMIGTEEHVMAAFGPSLEECQKAQIFTQMQALKYIGNKVRRQRMWGGGPKKTKIEEARELLASTILTHVPVKEFNFRAKCIYTAVMVRRVILAQGDNKVDDRDYYGNKRLELAGQLLSLLFEDLFKKFNSEMKKIADQVIPKQRAAQFDVVKHMRQDQITNGMVNAISTGNWSLKRFKMDRQGVTQVLSRLSYISALGMMTRISSQFEKTRKVSGPRSLQPSQWGMLCPSDTPEGEACGLVKNLALMTHITTDMEDGPIVKLASNLGVEDVNLLCGEELSYPNVFLVFLNGNILGVIRDHKKLVNTFRLMRRAGYINEFVSISTNLTDRCVYISSDGGRLCRPYIIVKKQKPAVTNKHMEELAQGYRNFEDFLHESLVEYLDVNEENDCNIALYEHTINKDTTHLEIEPFTLLGVCAGLIPYPHHNQSPRNTYQCAMGKQAMGTIGYNQRNRIDTLMYLLAYPQKPMVKTKTIELIEFEKLPAGQNATVAVMSYSGYDIEDALVLNKASLDRGFGRCLVYKNAKCTLKRYTNQTFDKVMGPMLDAATRKPIWRHEILDADGICSPGEKVENKQVLVNKSMPTVTQIPLEGSNVPQQPQYKDVPITYKGATDSYIEKVMISSNAEDAFLIKMLLRQTRRPEIGDKFSSRHGQKGVCGLIVPQEDMPFCDSGICPDIIMNPHGFPSRMTVGKLIELLAGKAGVLDGRFHYGTAFGGSKVKDVCEDLVRHGYNYLGKDYVTSGITGEPLEAYIYFGPVYYQKLKHMVLDKMHARARGPRAVLTRQPTEGRSRDGGLRLGEMERDCLIGYGASMLLLERLMISSDAFEVDVCGQCGLLGYSGWCHYCKSSCHVSSLRIPYACKLLFQELQSMNIIPRLKLSKYNE [POLR3B] | -0.184 | 48.9 °C | 49.6 °C | -0.161 | 0.664 | 1.01 |
| MDVNIAPLRAWDDFFPGSDRFARPDFRDISKWNNRVVSNLLYYQTNYLVVAAMMISIVGFLSPFNMILGGIVVVLVFTGFVWAAHNKDVLRRMKKRYPTTFVMVVMLASYFLISMFGGVMVFVFGITFPLLLMFIHASLRLRNLKNKLENKMEGIGLKRTPMGIVLDALEQQEEGINRLTDYISKVKE [ARL6IP5] | -0.0879 | 56.4 °C | 57.5 °C | -0.126 | 0.94 | 0.797 |
| MDVTSSSGGGGDPRQIEETKPLLGGDVSAPEGTKMGAVPCRRALLLCNGMRYKLLQEGDIQVCVIRHPRTFLSKILTSKFLRRWEPHHLTLADNSLASATPTGYMENSVSYSAIEDVQLLSWENAPKYCLQLTIPGGTVLLQAANSYLRDQWFHSLQWKKKIYKYKKVLSNPSRWEVVLKEIRTLVDMALTSPLQDDSINQAPLEIVSKLLSENTNLTTQEHENIIVAIAPLLENNHPPPDLCEFFCKHCRERPRSMVVIEVFTPVVQRILKHNMDFGKCPRLRLFTQEYILALNELNAGMEVVKKFIQSMHGPTGHCPHPRVLPNLVAVCLAAIYSCYEEFINSRDNSPSLKEIRNGCQQPCDRKPTLPLRLLHPSPDLVSQEATLSEARLKSVVVASSEIHVEVERTSTAKPALTASAGNDSEPNLIDCLMVSPACSTMSIELGPQADRTLGCYVEILKLLSDYDDWRPSLASLLQPIPFPKEALAHEKFTKELKYVIQRFAEDPRQEVHSCLLSVRAGKDGWFQLYSPGGVACDDDGELFASMVHILMGSCYKTKKFLLSLAENKLGPCMLLALRGNQTMVEILCLMLEYNIIDNNDTQLQIISTLESTDVGKRMYEQLCDRQRELKELQRKGGPTRLTLPSKSTDADLARLLSSGSFGNLENLSLAFTNVTSACAEHLIKLPSLKQLNLWSTQFGDAGLRLLSEHLTMLQVLNLCETPVTDAGLLALSSMKSLCSLNMNSTKLSADTYEDLKAKLPNLKEVDVRYTEAW [CMIP] | 0.271 | 50.5 °C | 48.7 °C | -0.224 | 0.861 | 0.998 |
| MDWVMKHNGPNDASDGTVRLRGLPFGCSKEEIVQFFQGLEIVPNGITLTMDYQGRSTGEAFVQFASKEIAENALGKHKERIGHRYIEIFRSSRSEIKGFYDPPRRLLGQRPGPYDRPIGGRGGYYGAGRGSMYDRMRRGGDGYDGGYGGFDDYGGYNNYGYGNDGFDDRMRDGRGMGGHGYGGAGDASSGFHGGHFVHMRGLPFRATENDIANFFSPLNPIRVHIDIGADGRATGEADVEFVTHEDAVAAMSKDKNNMQHRYIELFLNSTPGGGSGMGGSGMGGYGRDGMDNQGGYGSVGRMGMGNNYSGGYGTPDGLGGYGRGGGGSGGYYGQGGMSGGGWRGMY [HNRNPH3] | -0.0906 | 45.4 °C | 47.7 °C | 0.282 | 3.81 | 9.58 |
| MEAAAVTVTRSATRRRRRQLQGLAAPEAGTQEEQEDQEPRPRRRRPGRSIKDEEEETVFREVVSFSPDPLPVRYYDKDTTKPISFYLSSLEELLAWKPRLEDGFNVALEPLACRQPPLSSQRPRTLLCHDMMGGYLDDRFIQGSVVQTPYAFYHWQCIDVFVYFSHHTVTIPPVGWTNTAHRHGVCVLGTFITEWNEGGRLCEAFLAGDERSYQAVADRLVQITQFFRFDGWLINIENSLSLAAVGNMPPFLRYLTTQLHRQVPGGLVLWYDSVVQSGQLKWQDELNQHNRVFFDSCDGFFTNYNWREEHLERMLGQAGERRADVYVGVDVFARGNVVGGRFDTDKSLELIRKHGFSVALFAPGWVYECLEKKDFFQNQDKFWGRLERYLPTHSICSLPFVTSFCLGMGARRVCYGQEEAVGPWYHLSAQEIQPLFGEHRLGGDGRGWVRTHCCLEDAWHGGSSLLVRGVIPPEVGNVAVRLFSLQAPVPPKIYLSMVYKLEGPTDVTVALELTTGDAGSCHIGGISVLNAETSSRHSLRPLRVPPTKLARWVGRCGRQLSGGWVQHCYEVSLRGCLLLDLLVCFSRPPGSREEESFTCRLGEIQVVDAASLLAPLPQVQAVTISHIRWQPSASEREGPPALLQLSCTLHWSFLLSQVRCFRIHCWGGMSDDSPGRELPRPEMPMFLGLAFATQYRIVDLLVEAAGPGQDRRMEFLVEPVPKEGFRVPQAEWGRAVLLYSAPA [ENGASE] | -0.179 | 53.6 °C | 53.4 °C | -0.0912 | 0.438 | -0.925 |
| MEADASVDMFSKVLEHQLLQTTKLVEEHLDSEIQKLDQMDEDELERLKEKRLQALRKAQQQKQEWLSKGHGEYREIPSERDFFQEVKESENVVCHFYRDSTFRCKILDRHLAILSKKHLETKFLKLNVEKAPFLCERLHIKVIPTLALLKDGKTQDYVVGFTDLGNTDDFTTETLEWRLGSSDILNYSGNLMEPPFQNQKKFGTNFTKLEKKTIRGKKYDSDSDDD [TXNDC9] | 0.273 | 52.4 °C | 52.7 °C | 0.0132 | 1 | 0.636 |
| MEAERGPERRPAERSSPGQTPEEGAQALAEFAALHGPALRASGVPERYWGRLLHKLEHEVFDAGEVFGIMQVEEVEEEEDEAAREVRKQQPNPGNELCYKVIVTRESGLQAAHPNSIFLIDHAWTCRVEHARQQLQQVPGLLHRMANLMGIEFHGELPSTEAVALVLEEMWKFNQTYQLAHGTAEEKMPVWYIMDEFGSRIQHADVPSFATAPFFYMPQQVAYTLLWPLRDLDTGEEVTRDFAYGETDPLIRKCMLLPWAPTDMLDLSSCTPEPPAEHYQAILEENKEKLPLDINPVVHPHGHIFKVYTDVQQVASSLTHPRFTLTQSEADADILFNFSHFKDYRKLSQERPGVLLNQFPCENLLTVKDCLASIARRAGGPEGPPWLPRTFNLRTELPQFVSYFQQRERWGEDNHWICKPWNLARSLDTHVTKSLHSIIRHRESTPKVVSKYIESPVLFLREDVGKVKFDIRYIVLLRSVRPLRLFVYDVFWLRFSNRAFALNDLDDYEKHFTVMNYDPDVVLKQVHCEEFIPEFEKQYPEFPWTDVQAEIFRAFTELFQVACAKPPPLGLCDYPSSRAMYAVDLMLKWDNGPDGRRVMQPQILEVNFNPDCERACRYHPTFFNDVFSTLFLDQPGGCHVTCLV [TTLL12] | 0.0605 | 47.6 °C | 48.4 °C | -0.125 | 2 | 3.92 |
| MEASWRQVAGGRGRSRGRATAAPSGNGVHLRGAGGGREKGSVGAVPSGTSPGGVATTAAAGSRHSPAGSQALQTTAASELMSQKKFEEIKKANQAAARKLVEEQFSSSSEEGDEDFEGKQGKILANTFITYTTQTDGDTRELERTKQYVNEAFQAGAMTCLICIASVKRNQAVWSCSGCFCIFHMPCIQKWAKDSQFLVSSVTDDDFGKKDCPWPCPKCRFEYKRSETPSRYYCYCGKVEDPPLDPWLVPHSCGQVCEREFKPPCGHKCLLLCHPGPCPPCPKMVTTTCYCKKAKPIPRRCSAKEWSCQLPCGQKLLCGQHKCENPCHAGSCQPCPRVSRQKCVCGKKVAERSCASPLWHCDQVCGKTLPCGNHTCEQVCHVGACGECPRSGKRFCPCQKSKFSLPCTEDVPTCGDSCDKVLECGIHRCSQRCHRGPCETCRQEVEKHCRCGKHTKRMPCHKPYLCETKCVKMRDCQKHQCRRKCCPGNCPPCDQNCGRTLGCRNHKCPSVCHRGSCYPCPETVDVKCNCGNTKVTVPCGRERTTRPPKCKEQCSRPPTCHHTSQEKHRCHFGSCPPCHQPCQKVLEKCGHLCPAPCHDQALIKQTGRHQPTGPWEQPSEPAFIQTALPCPPCQVPIPMECLGKHEVSPLPCHAVGPYSCKRVCGRILDCQNHTCMKECHKVTKTDGCTGKNKAGPECLHCEEGCSKSRPLGCLHPCILRCHPGECPPCVQMLRIKCHCKITSLYVECRKITTADVNEKNLLSCCKNQCPKELPCGHRCKEMCHPGECPFNCNQKVKLRCPCKRIKKELQCNKVRENQVSIECDTTCKEMKRKASEIKEAEAKAALEEEKRRQQAELEAFENRLKGRRKKNRKRDEVAVELSLWQKHKYYLISVCGVVVVVFAWYITHDVN [NFXL1] | -0.509 | 50.2 °C | 50.5 °C | 0.0441 | 1.02 | 1.56 |
